In assay [1] the target is T1, NAGK-SmBiT (N-acetyl-L-glutamate kinase fused to Small BiT) (Synechocystis sp. PCC 6803, UniProt P73326 1-297).
T1 construct: N-acetyl-L-glutamate kinase (NAGK), Synechocystis sp; PCC 6803; Cloned into pTEV5 (NdeI, BamHI); source: E. coli Lemo21, purified (Ni-NTA HisTrap); not shown: SmBiT (after a 16 amino acids flexible linker), C-terminal, kept
T1 sequence (looked up): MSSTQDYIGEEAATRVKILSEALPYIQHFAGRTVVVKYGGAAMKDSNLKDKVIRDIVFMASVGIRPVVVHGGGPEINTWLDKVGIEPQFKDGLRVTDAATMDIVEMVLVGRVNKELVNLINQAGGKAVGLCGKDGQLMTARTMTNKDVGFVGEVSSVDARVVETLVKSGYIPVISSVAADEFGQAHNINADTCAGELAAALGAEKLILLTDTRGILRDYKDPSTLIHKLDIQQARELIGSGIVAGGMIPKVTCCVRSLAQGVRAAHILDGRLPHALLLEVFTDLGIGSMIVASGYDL
Kind of assay: split reporter (BiFC, NanoBiT); in solution; NAGK-SmBiT titrated to 10 pM PII-LgBiT; 2 mM ADP and 2 mM NAG; 40 min at 30 °C. The conditions noted are these: both partners purified.

Assay [2] deals with T1, NAGK-SmBiT (N-acetyl-L-glutamate kinase …). Kind of assay: split reporter (BiFC, NanoBiT); in solution; NAGK-SmBiT titrated to 10 pM PII-LgBiT; 2 mM ADP and 50 mM NAG; 40 min at 30 °C. As to conditions: both partners purified.
The target is the same in assay [3]. In words: split reporter (BiFC, NanoBiT); in solution; NAGK-SmBiT titrated to 10 pM PII-LgBiT variant; 2 mM ADP; 40 min at 30 °C; apparent KD. The conditions noted are these: both partners purified.
The target is the same in assay [4]. Kind of assay: split reporter (BiFC, NanoBiT); in solution; NAGK-SmBiT titrated to 10 pM PII-LgBiT variant; 2 mM ATP and 2 mM NAG; 40 min at 30 °C. As to conditions: both partners purified.
The target is the same in assay [5]. Kind of assay: split reporter (BiFC, NanoBiT); in solution; NAGK-SmBiT titrated to 10 pM PII-LgBiT variant; 2 mM ATP; 40 min at 30 °C; apparent KD. As to conditions: both partners purified.
Assay [6] has the same target. Kind of assay: split reporter (BiFC, NanoBiT); in solution; NAGK-SmBiT titrated to 10 pM PII-LgBiT variant; 2 mM ATP and 50 mM NAG; 40 min at 30 °C. As to conditions: both partners purified.
The target is the same in assay [7]. Kind of assay: split reporter (BiFC, NanoBiT); in solution; NAGK-SmBiT titrated to 10 pM PII-LgBiT; 2 mM ATP, 2 mM Arg and 2 mM NAG; 40 min at 30 °C. As to conditions: both partners purified.
Assay [8] has the same target. In words: split reporter (BiFC, NanoBiT); in solution; NAGK-SmBiT titrated to 10 pM PII-LgBiT; 2 mM ATP, 2 mM Arg and 50 mM NAG; 40 min at 30 °C. The conditions noted are these: both partners purified.
Assay [9] has the same target. In words: split reporter (BiFC, NanoBiT); in solution; NAGK-SmBiT titrated to 10 pM PII-LgBiT variant; no effector molecules; 40 min at 30 °C; apparent KD. The conditions noted are these: both partners purified.
Assay [10] has the same target. In words: split reporter (BiFC, NanoBiT); in solution; NAGK-SmBiT (3-666 nM) titrated to 10 pM PII-LgBiT variant; 2 mM ATP and 2 mM arginine; 40 min at 30 °C. As to conditions: both partners purified.
Assay [11] addresses T2, NAGK (as used in the Biolayer interferometry of ref. 17) (UniProt P73326 1-297).
T2 construct: N-acetyl-L-glutamate kinase
T2 sequence (looked up): T1 sequence (looked up)
In words: BLI; binding curves of ref. 17 re-calculated here by curve fitting from association and dissociation kinetics (Octet data analysis HT software); apparent KD.

Here are results for four molecules from publication PMC8206089, “Split NanoLuc technology allows quantitation of interactions between PII protein and its receptors with unprecedented sensitivity and reveals transient interactions” (Scientific Reports, 2021).

Residue numbers refer to the chain shown, from its start. Names and notes keep the numbering of the source.

B1: PII-LgBiT (wild-type PII protein from Synechocystis sp. PCC6803 fused to Large BiT) (natural protein, UniProt Q55247 1-112, looked up)
chain: MKKVEAIIRPFKLDEVKIALVNAGIVGMTVSEVRGFGRQKGQTERYRGSEYTVEFLQKLKIEIVVDEGQVDMVVDKLVSAARTGEIGDGKIFISPVDSVVRIRTGEKDTEAI
notes: PII signalling protein, Synechocystis sp; PCC 6803; LgBiT is fused at the C-terminally located Strep-tag purification linker of PII; cloned in pASK-IBA3; also called PII (WT); source: E. coli Lemo21, purified (Strep-Tactin Superflow); not shown: Strep-tag, internal (between PII and LgBiT), kept; LgBiT, C-terminal, kept
Regarding B1, the Kd was 14.9 nM in [1]; 1.2 nM in assay [2]; 30.8 nM in assay [3]; 4.7 nM in assay [4]; 8.8 nM in assay [5]; 0.74 nM in assay [6]. The Kd in [7] worked out at 16.5 nM; in [8] it was 9.5 nM; in assay [9], 12.9 nM; in [10], 17.8 nM.

B2: PII-S49E-LgBiT (phosphomimetic T-loop variant of PII fused to Large BiT) (natural protein, Synechocystis sp. PCC6803, UniProt Q55247 1-112, looked up)
chain: B1 chain with S49E
notes: PII signalling protein, Synechocystis sp; PCC 6803, variant S49E; Same fusion as m1 with S49E; also called S49E PII variant; source: E. coli Lemo21, purified (Strep-Tactin Superflow); not shown: Strep-tag, internal (between PII and LgBiT), kept; LgBiT, C-terminal, kept
With B2, the Kd amounted to 95.3 nM in assay [3]; 10.7 nM in assay [4]; 155 nM in [5]; 3.39 nM in assay [6]; 133 nM in assay [9]; 432 nM in [10].

B3: PII (as used in the Biolayer interferometry of ref. 17) (natural protein, UniProt Q55247 1-112, looked up)
chain: B1 chain
notes: PII signalling protein
Turning to B3, the Kd in assay [11] is 11.7 ± 0.005 nM.

B4: PII-I86N-LgBiT (PII variant I86N fused to Large BiT) (natural protein, Synechocystis sp. PCC6803, UniProt Q55247 1-112, looked up)
chain: B1 chain with I86N
notes: PII signalling protein, Synechocystis sp; PCC 6803, variant I86N; Same fusion as m1 with I86N; the text once words the change as 'IIe86 to Asp86'; source: E. coli Lemo21, purified (Strep-Tactin Superflow); not shown: Strep-tag, internal (between PII and LgBiT), kept; LgBiT, C-terminal, kept
As to B4, the Kd in assay [3] is 11.7 nM; in [4], 4.1 nM; in assay [5] it was 7 nM; in assay [6], 0.68 nM; in [9] it was 12.9 nM; in assay [10], 1.56 nM.
